{
  "source": "ChEMBL document CHEMBL2073952",
  "about": "“Na(+)-coupled transport of L-carnitine via high-affinity carnitine transporter OCTN2 and its subcellular localization in kidney” (Biochim Biophys Acta, 2001)",
  "proteins": {"B1": {"name": "Organic cation/carnitine transporter 2 (Homo sapiens) (protein)", "chain": "MRDYDEVTAFLGEWGPFQRLIFFLLSASIIPNGFTGLSSVFLIATPEHRCRVPDAANLSSAWRNHTVPLRLRDGREVPHSCRRYRLATIANFSALGLEPGRDVDLGQLEQESCLDGWEFSQDVYLSTIVTEWNLVCEDDWKAPLTISLFFVGVLLGSFISGQLSDRFGRKNVLFVTMGMQTGFSFLQIFSKNFEMFVVLFVLVGMGQISNYVAAFVLGTEILGKSVRIIFSTLGVCIFYAFGYMVLPLFAYFIRDWRMLLVALTMPGVLCVALWWFIPESPRWLISQGRFEEAEVIIRKAAKANGIVVPSTIFDPSELQDLSSKKQQSHNILDLLRTWNIRMVTIMSIMLWMTISVGYFGLSLDTPNLHGDIFVNCFLSAMVEVPAYVLAWLLLQYLPRRYSMATALFLGGSVLLFMQLVPPDLYYLATVLVMVGKFGVTAAFSMVYVYTAELYPTVVRNMGVGVSSTASRLGSILSPYFVYLGAYDRFLPYILMGSLTILTAILTLFLPESFGTPLPDTIDQMLRVKGMKHRKTPSHTRMLKDGQERPTILKSTAF"}},
  "substrate": "C[N+](C)(C)CC(O)CC(=O)[O-]",
  "assay": "TP_TRANSPORTER: uptake in membrane vesicle from OCTN2-expressing HEK 293 cell",
  "assay_type": "functional, cell membranes, HEK293",
  "data": [
    {"protein": "B1", "values": [
      {"measurement": "Km", "value": 2.66, "unit": "µM"}
    ]}
  ]
}
